According to US7264314B2, “Adrenocorticotropic hormone analogs and related methods” (priority 2004, dated 2007):
No end group written: not given here.

Molecular target: T1, adrenal ACTH receptors such as MC-2R (explanted adrenal membrane) (Mus musculus, UniProt Q64326)
T1 construct: the adrenal halves were macerated or otherwise dissociated using Dounce Homogenizer to form a membrane fraction; from tissue; host or cells: membrane fraction of explanted mouse adrenal glands
Assay: in vitro Serum-free Adrenal Competitive Binding Assay
Design: species or system mice
Conditions: cold peptide at 10 nM, 100 nM, 1000 nM
From the text: ACTH analog compounds that bind to adrenal membrane with a greater affinity than endogenous unmodified ACTH, and are able to displace unmodified ACTH can be identified using an in vitro Serum-free Adrenal Competitive Binding Assay (Example 3). […] A higher CPM level indicates the presence of greater amounts of the radiolabelled compound. […] Column 220 indicates the level of radio-labeled unmodified mACTH(1–24) detected after combining the explanted adrenal membrane with only the radio-labeled mACTH(1–24) for 2 hours.(no competitive binding). Columns 230, 240, and 250 show the results of competitive binding assays for binding of non-radio-labeled (“cold”) mACTH(1–24) to displace the radio-labeled mACTH(1–24) from the explanted adrenal membrane (measured in column 220) by competitive binding to receptors such as MC-2R on the adrenal membrane. […]
ACTH analogs with the ability to bind adrenal receptors with a greater affinity than compounds with known adrenal binding activity (preferably ACTH) can also be identified by performing an in vitro Adrenal Competitive Binding Assay, whereby measurement of the reduction in the amount of the radiolabelled adrenal-binding compound (e.g., ACTH) is measured at various concentrations of non-radio-labeled ACTH analog test compound in a medium containing explanted adrenal membrane. […]

T1 sequence (Q64326 whole entry): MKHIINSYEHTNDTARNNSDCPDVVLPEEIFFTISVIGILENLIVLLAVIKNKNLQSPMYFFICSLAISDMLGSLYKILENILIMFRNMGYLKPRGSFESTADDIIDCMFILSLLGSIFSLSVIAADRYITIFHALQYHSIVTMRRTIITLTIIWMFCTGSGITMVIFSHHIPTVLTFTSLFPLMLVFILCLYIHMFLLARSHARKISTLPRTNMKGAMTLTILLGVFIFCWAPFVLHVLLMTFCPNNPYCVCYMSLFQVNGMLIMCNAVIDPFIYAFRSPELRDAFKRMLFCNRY
T1 sequence (Q9D159 whole entry partner): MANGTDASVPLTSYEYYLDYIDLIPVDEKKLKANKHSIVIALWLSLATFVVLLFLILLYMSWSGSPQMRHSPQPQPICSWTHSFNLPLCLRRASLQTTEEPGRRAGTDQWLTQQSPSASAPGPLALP

N-Ser^1-Tyr-Ser-Met-Glu^5-His-Phe-Arg-Trp-Gly^10-Lys-Pro-Val-Gly-Lys^15-Arg-Ala-Ala-Trp-Val^20-Lys-Val-Tyr-Pro-Ac (SYSMEHFRWGKPVGKRAAWVKVYP; not fully specified (C-terminus); printed as N-Ser1-Tyr-Ser-Met-Glu5-His-Phe-Arg-Trp-Gly10-Lys-Pro-Val-Gly-Lys15-Arg-Ala-Ala-Trp-Val20-Lys-Val-Tyr-Pro-Ac) [AT814]
displacement of radio-labeled mACTH(1–24) from explanted adrenal membrane (CPM): displacement of the radio-labeled mACTH(1–24)
